No end group written: not given here.
T1: GCYKNRDCG (plasmin sensitive peptide)
T1 sequence: GCYKNRDCG

T2: GCY-DLys-N-DArg-DCG (plasmin stable peptide)
T2 sequence: GCYKNRDCG


What was measured:
[1] = system: T1, GCYKNRDCG (plasmin sensitive peptide)
[2] = system: T2, GCY-DLys-N-DArg-DCG (plasmin stable peptide)
[3] = molecular target: receptors that recognize the sequence GRGDSPG; assay: cell-based or functional assay

Sequence of plasmin (P00747 20-580): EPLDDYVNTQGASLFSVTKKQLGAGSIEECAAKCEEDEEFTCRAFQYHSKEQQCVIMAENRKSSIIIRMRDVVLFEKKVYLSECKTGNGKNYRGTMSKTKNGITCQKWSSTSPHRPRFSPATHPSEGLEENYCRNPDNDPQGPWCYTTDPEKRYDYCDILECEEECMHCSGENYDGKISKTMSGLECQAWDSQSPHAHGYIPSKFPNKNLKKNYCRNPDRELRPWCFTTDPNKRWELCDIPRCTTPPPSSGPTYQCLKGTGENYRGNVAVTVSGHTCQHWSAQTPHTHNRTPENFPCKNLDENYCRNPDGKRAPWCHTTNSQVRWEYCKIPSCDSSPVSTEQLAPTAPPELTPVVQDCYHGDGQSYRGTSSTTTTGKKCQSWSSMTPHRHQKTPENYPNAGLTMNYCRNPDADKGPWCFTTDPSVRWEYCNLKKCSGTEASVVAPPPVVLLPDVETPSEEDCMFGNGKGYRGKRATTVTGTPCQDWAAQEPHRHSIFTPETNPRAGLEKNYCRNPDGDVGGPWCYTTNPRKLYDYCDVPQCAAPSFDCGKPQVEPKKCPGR
Sequence of plasmin (P00747 581-810): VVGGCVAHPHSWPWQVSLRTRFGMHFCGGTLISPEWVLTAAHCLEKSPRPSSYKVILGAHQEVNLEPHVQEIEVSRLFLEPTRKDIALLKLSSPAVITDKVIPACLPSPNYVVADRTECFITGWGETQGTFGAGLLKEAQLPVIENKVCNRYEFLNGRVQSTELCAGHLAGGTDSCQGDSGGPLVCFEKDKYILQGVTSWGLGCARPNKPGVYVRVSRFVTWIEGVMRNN

| Molecule | degradation of PEG-triacrylate/peptide gel by 0.2 units of plasmin in 200 microliters, 37 C [1] | peptide degradation by plasmin, analytical C18 HPLC, plasmin at 1/1000 the peptide concentration, 37 C [1] | degradation of PEG-triacrylate/peptide gel by 0.2 units of plasmin in 200 microliters, 37 C [2] | adhesion and spreading of human foreskin fibroblasts on conjugate addition PEG gels carrying the peptide on one of every 12 acrylates, 6 hours after seeding [3] [%] |
| --- | --- | --- | --- | --- |
| plasmin | The L-Lys, L-Arg configuration of the peptide was readily degraded by the enzyme. In one case, after 6 hours no gel remained. | most of the GCYKNRDCG peptide was degraded in approximately one hour at 37 °C | The DLys, DArg configuration gel has not been shown to degrade by plasminolysis. |  |
| GC(PEG acrylate)GYGRGDSPG [… (RGD-containing adhesion peptide)] |  |  |  | 50 |
